Values quoted from earlier work, collected in PMC9776232.

Target: Amyloid beta (Homo sapiens) (UniProt P05067)
Sequence (P05067 672-711): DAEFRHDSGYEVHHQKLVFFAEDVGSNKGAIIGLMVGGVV

L-PGDS, sequence (P41222 23-190): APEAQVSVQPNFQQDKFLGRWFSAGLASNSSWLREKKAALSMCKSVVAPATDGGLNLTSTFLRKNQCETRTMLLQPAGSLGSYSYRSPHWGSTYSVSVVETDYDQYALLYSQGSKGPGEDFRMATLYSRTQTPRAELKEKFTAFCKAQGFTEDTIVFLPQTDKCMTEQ

For L-PGDS (from UniProt P41222), which Kd is on record?
The Kd was 34 nM.
